From paper PMC7430664, “Yeast pentatricopeptide protein Dmr1 (Ccm1) binds a repetitive AU-rich motif in the small subunit mitochondrial ribosomal RNA”

Tests used:
[1] = molecular target: T1, Dmr1p (Ccm1p), tag removed (Saccharomyces cerevisiae, UniProt P48237 27-864); assay: EMSA; 0.2 ug tRNA; EMSA as in Puchta et al. 2010 (buffer not restated), 15 uL, up to 0.8 ug Dmr1p, BSA to constant protein, 0.2 ug tRNA; PNPase protection: 20 mM Tris-HCl pH 8.0; conditions: protein: recombinant; tags: none after TEV cleavage (from Dmr1-MBP-His6); label: 32P-UTP
T1 sequence: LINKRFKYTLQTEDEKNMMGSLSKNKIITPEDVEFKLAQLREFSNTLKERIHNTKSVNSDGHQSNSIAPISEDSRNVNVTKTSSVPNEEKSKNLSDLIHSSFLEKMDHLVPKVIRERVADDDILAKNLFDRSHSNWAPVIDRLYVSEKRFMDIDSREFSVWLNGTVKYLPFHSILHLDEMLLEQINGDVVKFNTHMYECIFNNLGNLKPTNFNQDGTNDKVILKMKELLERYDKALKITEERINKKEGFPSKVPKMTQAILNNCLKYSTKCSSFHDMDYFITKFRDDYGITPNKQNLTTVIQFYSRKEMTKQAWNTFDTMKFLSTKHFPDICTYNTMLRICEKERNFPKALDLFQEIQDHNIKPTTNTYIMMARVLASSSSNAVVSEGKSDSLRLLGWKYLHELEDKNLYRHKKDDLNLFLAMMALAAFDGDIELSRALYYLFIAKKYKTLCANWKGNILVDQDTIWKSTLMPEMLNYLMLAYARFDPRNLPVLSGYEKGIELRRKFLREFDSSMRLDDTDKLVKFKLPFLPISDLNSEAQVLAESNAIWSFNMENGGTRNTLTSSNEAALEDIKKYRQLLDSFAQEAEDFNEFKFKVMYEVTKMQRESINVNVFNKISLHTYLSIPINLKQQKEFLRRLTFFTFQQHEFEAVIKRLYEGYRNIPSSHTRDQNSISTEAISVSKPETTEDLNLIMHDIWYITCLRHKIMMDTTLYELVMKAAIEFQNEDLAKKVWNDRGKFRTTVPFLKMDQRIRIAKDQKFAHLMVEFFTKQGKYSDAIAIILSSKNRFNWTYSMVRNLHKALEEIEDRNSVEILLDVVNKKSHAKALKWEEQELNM

[2] = molecular target: T1, Dmr1p (Ccm1p), tag removed; assay: EMSA; 0.2 ug tRNA; strong; EMSA as in Puchta et al. 2010 (buffer not restated), 15 uL, up to 0.8 ug Dmr1p, BSA to constant protein, 0.2 ug tRNA; PNPase protection: 20 mM Tris-HCl pH 8.0; conditions: protein: recombinant; tags: none after TEV cleavage (from Dmr1-MBP-His6); label: 32P-UTP
[3] = molecular target: T2, Dmr1-His6 (Saccharomyces cerevisiae, UniProt P48237 27-864); assay: nuclease protection; PNPase, 2 mM MgCl2; complete protection, from 0.1 ug protein; EMSA as in Puchta et al. 2010 (buffer not restated), 15 uL, up to 0.8 ug Dmr1p, BSA to constant protein, 0.2 ug tRNA; PNPase protection: 20 mM Tris-HCl pH 8.0; conditions: protein: recombinant; tags: His6 (pET28a); label: 32P-UTP
T2 sequence: T1 sequence

[4] = molecular target: T2, Dmr1-His6; assay: nuclease protection; PNPase, 2 mM MgCl2; not protected; EMSA as in Puchta et al. 2010 (buffer not restated), 15 uL, up to 0.8 ug Dmr1p, BSA to constant protein, 0.2 ug tRNA; PNPase protection: 20 mM Tris-HCl pH 8.0; conditions: protein: recombinant; tags: His6 (pET28a); label: 32P-UTP
[5] = molecular target: T2, Dmr1-His6; assay: footprinting; Dis3p 3'-5' exoribonuclease, 2 mM MgCl2; stop 3-5 nt downstream of (AUA)4AU; EMSA as in Puchta et al. 2010 (buffer not restated), 15 uL, up to 0.8 ug Dmr1p, BSA to constant protein, 0.2 ug tRNA; PNPase protection: 20 mM Tris-HCl pH 8.0; conditions: protein: recombinant; tags: His6 (pET28a); label: 32P-UTP
[6] = molecular target: T2, Dmr1-His6; assay: nuclease protection; Terminator 5'-3' exonuclease, 2 mM MgCl2; partial; text calls it the 24 nt fragment, legend 15_14; EMSA as in Puchta et al. 2010 (buffer not restated), 15 uL, up to 0.8 ug Dmr1p, BSA to constant protein, 0.2 ug tRNA; PNPase protection: 20 mM Tris-HCl pH 8.0; conditions: protein: recombinant; tags: His6 (pET28a); label: 32P-UTP

GGAUAAUAAUAAUAAU (ssRNA) [15_14]
binding result [1]: binds

GGUUAUAAUAAUAAUAAUAAUAAUAU (ssRNA) [20_24]
binding result [2]: binds | binding result [3]: binds

GGAAAAGGAUAUAUAUAUAAUAUAUA (ssRNA) [N_24]
binding result [4]: no binding | binding result [1]: no binding

GGAAAGAUGAAAUAAUAAUAAUAAUUAUAAGACUAAU (ssRNA) [15_35]
binding result [5]: binds

GGAUAAUAAUAAUAAU (ssRNA, 5' monophosphate (polyphosphatase treated)) [15_14 5'-monophosphate]
binding result [6]: binds

GGUAUAUAUAUAAUAU (ssRNA) [N_14]
binding result [1]: no binding

GGAAAUAAUAAUAAUAAUUAUAAGAC (ssRNA) [15_24]
binding result [1]: binds
